# Data as given in patent US12144869B2, “Anti-ROR1 antibody conjugates, compositions comprising anti ROR1 antibody conjugates, and methods of making and using anti-ROR1 antibody conjugates” (Sutro Biopharma, Inc., priority 2022, dated 2024).
# Residue numbers refer to the chain shown, from its start.
# B1: SRP2196-A07 (antibody, V domains shown)
# VH: EVQLVESGGGLVQPGGSLRLSCAASGFNITGYYIHWVRQAPGKGLEWVGQISPNSGSTYYADSVKGRFTISADTSKNTAYLQMSSLRAEDTAVYYCARDSRRYVRGWDYWGQGTLVTVSS
# VL: QAVVTQESALTTSPGETVTLTCRSSTGAVTTSNYANWVQEKPDHLFTGLIGGTNKRAPGVPARFSGSLIGDKAALTITGAQTEDEAIYFCALWYSNLWVFGGGTKLTVL
# B2: SRP2196-B03 (antibody, V domains shown)
# VH: B1 VH with V12A, Q50Y, S57A, Y59H, S84N, G106P, W107F
# VL: B1 VL
# B3: SRP2196-B11 (antibody, V domains shown)
# VH: B1 VH with K43R, S57Y, S84N, V104I, G106S
# VL: B1 VL
# B4: SRP2196-A09 (antibody, V domains shown)
# VH: B1 VH with S57A, Y59H, S84N, V104I, G106S
# VL: B1 VL
# B5: SRP2196-B09 (antibody, V domains shown)
# VH: B1 VH with G15E, G31E, Q50Y, S84N, G106S
# VL: B1 VL
# B6: SRP2196-B01 (antibody, V domains shown)
# VH: B1 VH with S57Y, A79T, S84N, G106S
# VL: B1 VL
# B7: 1987-C05 HC w/hSP34 LC3: HC of lead antibody 1987-C05 co-expressed with the LC of anti-CD3 antibody "hSP34-LC3" (antibody, V domains shown)
# VH: EVQLVESGGGLVQPGGSLRLSCAASGFNISDYDIHWVRQAPGKGLEWVGGIDPDDGSTDYADSVKGRFTISADTSKNTAYLQMNSLRAEDTAVYYCARDYGVFDYWGQGTLVTVSS
# VL: QTVVTQEPSLTVSPGGTVTLTCGSSTGAVTSGYYPNWFQQKPGQAPRGLIGGTKFLAPGTPARFSGSLLGGKAALTLSGVQPEDEAEYYCALWYSNRWVFGGGTQLTVTG
# B8: 1987-C05 HC w/hOKT3 LC1: HC of lead antibody 1987-C05 co-expressed with the LC of anti-CD3 antibody "hOKT3-LC1" (antibody, V domains shown)
# VH: B7 VH
# VL: DIQMTQSPSSLSASVGDRVTITCSASSSVSYMNWYQQKPGKAPKRLIYDTSKLASGVPSRFSGSGSGTEYTLTISSLQPEDFATYYCQQWSSNPFTFGQGTKLEIK
# B9: 1987-C05 HC w/hUCHT1 LC3: HC of lead antibody 1987-C05 co-expressed with the LC of anti-CD3 antibody "hUCHT1-LC3" (antibody, V domains shown)
# VH: B7 VH
# VL: DIQMTQSPSTLSASVGDRVTITCRASQDIRNYLNWYQQKPGKAPKLLIYYTSRLHSGVPSRFSGSGSGTEYTLTISSLQPDDFATYYCQQGNTLPWTFGGGTKVEIK
# Molecular target: T1, human ROR1-Fz (Homo sapiens, UniProt Q01973)
# T1 construct: Frizzled (Fz, residues 165-305); His6 (C); purchased Acro Biosystems; host or cells: HEK293
# Assay: Biacore off-rate and kinetic analysis, ROR1-Fz
# Assay type: binding
# Settings: Table 11; SP34 light chain
# Protocol: (§1) Anti-Fc polyclonal antibodies were immobilized onto a CMS chip (GE Life Sciences) using amine coupling chemistry (from Amine Coupling Kit, GE Life Sciences). The immobilization steps were carried out at a flow rate of 25 μL/min in 1×HBS-EP+buffer (GE Life Sciences; 10× Stock diluted before use). The sensor surfaces were activated for 7 min with a mixture of NHS (0.05 M) and EDC (0.2 M). The Anti-Fc antibodies were injected over all 4 flow cells at a concentration of 25 ug/ml in 10 mM sodium acetate, pH 4.5, for 7 min. Ethanolamine (1 M, pH 8.5) was injected for 7 min to block any remaining activated groups. An average of 12,000 response units (RU) of capture antibody was immobilized on each flow cell.
# (§2) Off-rate and kinetic binding experiments were performed at 25° C. using 1×HBS-EP+buffer. Test and control antibodies were injected over the anti-Fc surface at concentrations of 5-10 μg/mL for 12 seconds at a flow rate of 10 μL/min on flow cells 2, 3 and 4, followed by a buffer wash for 30 seconds at the same flow rate. Kinetic characterization of antibody samples was carried out with a range of antigen concentrations from 1-100 nM and 1 injection of 0 nM antigen (for example, 100, 50, 25, 6.25, 1.56 and 0 nM). After capturing ligand (antibody) on the anti-Fc surface, the analyte (hROR1, Fz or Kr domains, Acro Biosystems, Delaware) was bound for 180 seconds, followed by a 600 second dissociation phase at a flow rate of 50 μL/min. Between each ligand capture and analyte binding cycle, regeneration was carried out using 2 injections of 10 mM Glycine pH 2.0 for 30 seconds at 30 μL/min, followed by a 30 second buffer wash step.
# (§3) The data was fit with the Biacore T200 Evaluation software, using a 1-1 Langmuir binding model. KD (affinity, nM) was determined as a ratio of the kinetic rate constants calculated from the fits of the association and dissociation phases.
# (§4) For anti-CD3-LC-containing IgGs that had detectable ROR1-binding in ELISA (1944-A07 and 1987-C05 variants), those antibodies were further tested for binding by surface plasmon resonance (SPR). Binding kinetics were assessed to the ROR1-frizzled domain (hROR1-Fz) or the ROR1-extracellular domain (hROR1) for 1944-A07 and 1987-C05 variants, respectively. Briefly, anti-ROR1 antibodies were captured via anti-human Fc polyclonal antibodies immobilized to a CM5 chip, and ROR1 recombinant proteins were flowed across the surface to assess binding kinetics. hROR1 or hROR1-Fz domain (Acro Biosystems, Delaware) binding was tested at 100, 50, 25, 6.25, 1.5625 nM. The data was fit with the Biacore™ T200 Evaluation software, using a 1-1 Langmuir binding model. KD (affinity, nM) was determined as a ratio of the kinetic rate constants calculated from the fits of the association and dissociation phases.
Molecule,Biacore human ROR1-Fz ka [M⁻¹ s⁻¹],Biacore human ROR1-Fz kd [s⁻¹]
B1,186000,0.00064
B2,124000,0.000945
B3,137000,0.000597
B4,150000,0.000568
B5,130000,0.000427
B6,131000,0.000401

# Molecular target: T2, hROR1 (ROR1-extracellular domain) (Homo sapiens, UniProt Q01973)
# T2 construct: the ROR1-frizzled domain (hROR1-Fz) or the ROR1-extracellular domain (hROR1); purchased Acro Biosystems
# Assay: Biacore off-rate and kinetic analysis, hROR1 extracellular domain
# Assay type: binding
# Settings: Table 7; sample ROR1 ECD; 1987-C05 HC with different LCs
# Protocol: as §1, §2, §3, §4
Molecule,KD,ka1 [M⁻¹ s⁻¹],kd1 [s⁻¹]
B7,Not detected,,
B8,Not detected,,
B9,,566000,0.000645

# Same assay, conditions: hROR1; 1987-C05 variants
row,Molecule,KD (SPR binding kinetics)
1,B7,no detectable binding
2,B8,no detectable binding

# Test system: ROR1 or ROR2
# Assay: ROR2 cross-reactivity ELISA (ROR1/ROR2 signal ratio)
# Assay type: binding
# Settings: Table 11; SP34 light chain
# Protocol: Antibodies were tested for their ability to bind to either ROR1 or ROR2 via ELISA. Briefly, 2 μg/mL of ROR1 or ROR2 (Acro Biosystems) were coated to 384-well polystyrene plates for 1 hr at 30° C. in 0.1 M bicarbonate pH8.9 buffer before they were washed and blocked with 2% BSA in PBST (PBS, 0.1% Tween20) for 1 hr. Antibody variants were diluted to 2.5 μg/mL and further serially diluted 3-fold before 30 μL was applied to the ELISA plates for binding (1 hr at 30° C.). Antibody binding was detected via HRP-conjugated anti-human Fc antibodies (Jackson Immunoresearch) and detection with SuperSignal ELISA Pico Chemiluminescent Substrate (Pierce). Cross-reactivity was reported as a ratio of ROR1-ELISA signal over ROR2-ELISA signal at the highest dilution tested.
row,Molecule,ROR1/ROR2 ELISA ratio
1,B1,16.3
2,B2,22.8
3,B3,19.1
4,B4,20.1
5,B5,27.3
6,B6,17.2

# Test system: not listed separately
# Assay: Differential scanning fluorimetry (protein thermal shift; TM1/TM2)
# Assay type: physicochemical
# Settings: Table 11; melting temperature of the Fab domain
# Protocol: A protein thermal shift assay was carried out by mixing the protein to be assayed with an environmentally sensitive dye (SYPRO Orange, Life Technologies Cat #S-6650) in a phosphate buffered solution (PBS), and monitoring the fluorescence of the mixture in real time as it underwent controlled thermal denaturation. Protein solutions between 0.2-2 mg/mL were mixed at a 1-1 volumetric ratio with a 1-500 PBS-diluted solution of SYPRO Orange (SYPRO Orange stock dye is 5000× in DMSO). 10 μL aliquots of the protein-dye mixture were dispensed in quadruplicate in a 384-well microplate (Bio-Rad Cat #MSP-3852), and the plate was sealed with an optically clear sealing film (Bio-Rad Cat #MSB-1001) and placed in a 384-well plate real-time thermocycler (Bio-Rad CFX384 Real Time System). The protein-dye mixture was heated from […], at increments of 0.1° C. per cycle (˜1.5° C. per minute), allowing 3 seconds of equilibration at each temperature before taking a fluorescence measurement. At the end of the experiment, the transition melting temperatures (TM1 and TM2) were determined using the Bio-Rad CFX manager software. TM1 represents the melting temperature of the Fc domain. TM2 represents the melting temperature of the Fab domain.
# For the thermal stability of an antibody, the first melting peak (Tm1) coincides with the unfolding of the CH2 domain (FC stability), while the second melting peak (Tm2) occurs upon unfolding of the Fab domain.
row,Molecule,TM2 (° C.) [°C]
1,B1,74
2,B2,71
3,B3,74
4,B4,75
5,B5,72
6,B6,75
